The target of test [1] is Cardiac phospholamban (rat heart homogenate) (rat (endogenous in rat left ventricle)) (UniProt P61016).
The target in test [2] is PKGIα M438G (analogue-sensitive mutant), disulfide dimer (human). As to the kind of experiment: cross-linking; intermolecular Cys42 disulfide of purified recombinant PKGIα (lipoic acid or air oxidation) seen as dimer by SDS-PAGE.
The target of test [3] is C42S PKGIα (human). As to the kind of experiment: ITC; PLN (1–23) (700 μM) titrated into the cell containing WT disulfide PKGIα or the C42S mutant (70 μM); 25 °C; 50 mM sodium phosphate buffer pH 7.4, 100 mM NaCl; no cyclic nucleotide. (In general: In ITC the heat of successive injections is recorded.)
Test [4] has as its target PKGIα (WT mouse heart) (mouse (endogenous in mouse heart)) (UniProt P0C605). As to the kind of experiment: cross-linking; intermolecular disulfide dimer of PKGIα in perfused mouse hearts (0 or 5 mm Hg EDP), homogenised with 100 mM maleimide, SDS-PAGE without reducing agent and immunoblot.

Chain of Cardiac phospholamban (rat heart homogenate) (rat (endogenous in rat left ventricle)) (P61016 whole entry): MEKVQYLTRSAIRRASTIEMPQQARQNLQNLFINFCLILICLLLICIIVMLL
Chain of PKGIα (WT mouse heart) (P0C605 2-671): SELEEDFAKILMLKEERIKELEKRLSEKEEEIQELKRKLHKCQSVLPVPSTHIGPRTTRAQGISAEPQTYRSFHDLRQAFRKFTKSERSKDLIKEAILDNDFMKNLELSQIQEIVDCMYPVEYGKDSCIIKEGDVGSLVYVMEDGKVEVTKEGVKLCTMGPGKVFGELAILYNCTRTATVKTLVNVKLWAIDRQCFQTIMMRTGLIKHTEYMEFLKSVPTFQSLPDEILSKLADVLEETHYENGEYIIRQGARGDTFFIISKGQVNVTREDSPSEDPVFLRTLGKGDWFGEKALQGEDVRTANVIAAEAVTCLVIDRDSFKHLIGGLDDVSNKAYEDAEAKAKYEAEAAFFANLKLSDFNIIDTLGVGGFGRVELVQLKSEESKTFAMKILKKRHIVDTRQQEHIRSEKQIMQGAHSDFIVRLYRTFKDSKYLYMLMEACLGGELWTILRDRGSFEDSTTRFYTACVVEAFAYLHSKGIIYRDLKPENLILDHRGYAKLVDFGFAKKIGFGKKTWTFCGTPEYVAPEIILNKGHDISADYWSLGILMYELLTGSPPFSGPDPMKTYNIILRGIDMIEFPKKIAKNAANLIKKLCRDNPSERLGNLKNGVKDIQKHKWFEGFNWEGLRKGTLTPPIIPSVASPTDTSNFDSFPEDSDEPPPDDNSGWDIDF
Chain of N-terminally acetylated peptide of the N-terminal cytoplasmic domain of human phospholamban, PLN (amino acid 1-23) (P26678 1-23): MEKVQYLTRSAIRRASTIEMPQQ

Usually stoichiometry N stands for a count of units in the complex or per binding partner. Consider “PKGIα M438G (analogue-sensitive mutant), disulfide dimer (enzyme)”, for which, in test [1], the log2 fold change in abundance of the PLN pSer16 phosphopeptide (thiophosphorylation in rat heart homogenate), disulfide-activated PKGIα M438G versus basal PKGIα C42S/M438G control (log2 fold change) amounted to 0.41. In addition, the stoichiometry N in test [2] was 2. With “N-terminally acetylated peptide of the N-terminal cytoplasmic domain of human phospholamban, PLN (amino acid 1-23) (from UniProt P26678 1-23)”, the fold change of Kd against WT PKGIα disulfide dimer in test [3] is above 5 fold. Consider “PKGIα (WT mouse heart) (from UniProt P0C605 1-671) (enzyme)”, for which the stoichiometry N in test [4] was found to be 2.

For the origin of these results see paper PMC5095173, “Disulfide-activated protein kinase G Iα regulates cardiac diastolic relaxation and fine-tunes the Frank–Starling response” (Nature Communications, 2016).
